Assay results published in US9598687B2.

Target: recombinant human prothrombin (Factor II) (human) (UniProt P00734)

- Lys-C fragments identified by reverse phase UPLC and mass spectrometry (peptide mapping): 25 fragments
Substance: endoproteinase Lysyl endopeptidase (Lys-C) (tool reagent)
